This test concerns the target I95E mutant of the PAS-A domain of the Bacillus subtilis protein KinA (Bacillus subtilis). Briefly: AUC.

“I95E mutant of the PAS-A domain of the Bacillus subtilis protein KinA (domain or fragment)”: the log(Ka) is 3.96, the log(k−) (log of koff) was -3.7 and the stoichiometry N was 2.

The values are drawn from article PMC3147155.
